Starred links: 1 amine or outer side, 2 acyl side, 3 side chain; linkers in the order of their positions; H or OH if unused. Positions of bridges follow the written chain, without caps; N, C: chain ends. Non-standard residues stand in square brackets, D forms with d. Primed or numbered codes have the meaning given here. No end group written: not given here. *: point of attachment. Aph(SaPr) = 4-amino-L-phenylalanine, ring amine acylated by 3-sulfamoylpropanoic acid, NS(=O)(=O)CCC(=O)Nc1ccc(C[C@H](N[*:1])C(=O)[*:2])cc1; Ttds(4) = 1,13-diamino-4,7,10-trioxatridecan-succinamic acid spacer, O=C(CCC(=O)[*:2])NCCCOCCOCCOCCCN[*:1]; Ttds = 1,13-diamino-4,7,10-trioxatridecan-succinamic acid spacer, NCCCOCCOCCOCCCNC(=O)CCC(=O)*; Phe(3-NHCO(CH2)3SO2NH2) = N[C@@H](Cc1cccc(NC(=O)CCCS(N)(=O)=O)c1)C(=O)O; APAc″ = 2-(4-(amino)piperidin-1-yl)acetic acid, NC1CCN(CC(=O)*)CC1; DOTA = O=C(O)CN1CCN(CC(=O)O)CCN(CC(=O)*)CCN(CC(=O)O)CC1; PPAc = 4-carboxymethyl piperazine linker; mXylylene = c1cc(C[*:1])cc(C[*:2])c1; tBuAla = CC(C)(C)C[C@H](N)C(=O)O; Pen = CC(C)(S)[C@H](N)C(=O)O; Tle = CC(C)(C)[C@H](N)C(=O)O; 3Amb = NCc1cccc(C(=O)O)c1; PPAc″ = not defined here; Cmp = not defined here; Dap = NC[C@H](N)C(=O)O; Rni = not defined here

Sequences and labels used below:
B1: 3BP-4260 (peptide)
peptide: {DOTA-3Amb}-DCE[dP]DWLTW[Dap]C-NH2
modifications: lactam 10-1; linker 2-11 via mXylylene
SMILES: CC(C)C[C@@H]1NC(=O)[C@H](Cc2c[nH]c3ccccc23)NC(=O)[C@H](CC(=O)O)NC(=O)[C@H]2CCCN2C(=O)[C@H](CCC(=O)O)NC(=O)[C@@H]2CSCc3cccc(c3)CSC[C@@H](C(N)=O)NC(=O)[C@H](CNC(=O)C[C@H](NC(=O)c3cccc(CNC(=O)CN4CCN(CC(=O)O)CCN(CC(=O)O)CCN(CC(=O)O)CC4)c3)C(=O)N2)NC(=O)[C@H](Cc2c[nH]c3ccccc23)NC(=O)[C@H]([C@@H](C)O)NC1=O
B2: 3BP-4505 (peptide)
peptide: {DOTA}-ECE[dP]D[Aph(SaPr)]LTW[Dap]C-NH2
modifications: lactam 1-10; linker 2-11 via mXylylene
SMILES: CC(C)C[C@@H]1NC(=O)[C@H](Cc2ccc(NC(=O)CCS(N)(=O)=O)cc2)NC(=O)[C@H](CC(=O)O)NC(=O)[C@H]2CCCN2C(=O)[C@H](CCC(=O)O)NC(=O)[C@@H]2CSCc3cccc(c3)CSC[C@@H](C(N)=O)NC(=O)[C@H](CNC(=O)CC[C@H](NC(=O)CN3CCN(CC(=O)O)CCN(CC(=O)O)CCN(CC(=O)O)CC3)C(=O)N2)NC(=O)[C@H](Cc2c[nH]c3ccccc23)NC(=O)[C@H]([C@@H](C)O)NC1=O
B3: 3BP-4338 (peptide)
peptide: DCE[dP]DWLTW[Dap]C-NH2
modifications: lactam 1-10; linker 2-11 via mXylylene; not fully specified (N-terminus); also: indium complexed by DOTA
B4: 3BP-2949 (peptide)
peptide: Ac-VYCEGDWLTWQC[Ttds(4)][dK](DOTA)-NH2
modifications: linker 3-12 via mXylylene
SMILES: CC(=O)N[C@H](C(=O)N[C@@H](Cc1ccc(O)cc1)C(=O)N[C@H]1CSCc2cccc(c2)CSC[C@@H](C(=O)NCCCOCCOCCOCCCNC(=O)CCC(=O)N[C@H](CCCCNC(=O)CN2CCN(CC(=O)O)CCN(CC(=O)O)CCN(CC(=O)O)CC2)C(N)=O)NC(=O)[C@H](CCC(N)=O)NC(=O)[C@H](Cc2c[nH]c3ccccc23)NC(=O)[C@H]([C@@H](C)O)NC(=O)[C@H](CC(C)C)NC(=O)[C@H](Cc2c[nH]c3ccccc23)NC(=O)[C@H](CC(=O)O)NC(=O)CNC(=O)[C@H](CCC(=O)O)NC1=O)C(C)C
B5: 3BP-3043 (peptide)
peptide: Ac-[dV]YCEGDWLTWQC-NH2
modifications: linker 3-12 via mXylylene
SMILES: CC(=O)N[C@@H](C(=O)N[C@@H](Cc1ccc(O)cc1)C(=O)N[C@H]1CSCc2cccc(c2)CSC[C@@H](C(N)=O)NC(=O)[C@H](CCC(N)=O)NC(=O)[C@H](Cc2c[nH]c3ccccc23)NC(=O)[C@H]([C@@H](C)O)NC(=O)[C@H](CC(C)C)NC(=O)[C@H](Cc2c[nH]c3ccccc23)NC(=O)[C@H](CC(=O)O)NC(=O)CNC(=O)[C@H](CCC(=O)O)NC1=O)C(C)C
B6: 3BP-3063 (peptide)
peptide: Ac-VY[Pen]EGDWLTWQC-NH2
modifications: linker 3-12 via mXylylene
SMILES: CC(=O)N[C@H](C(=O)N[C@@H](Cc1ccc(O)cc1)C(=O)N[C@@H]1C(=O)N[C@@H](CCC(=O)O)C(=O)NCC(=O)N[C@@H](CC(=O)O)C(=O)N[C@@H](Cc2c[nH]c3ccccc23)C(=O)N[C@@H](CC(C)C)C(=O)N[C@@H]([C@@H](C)O)C(=O)N[C@@H](Cc2c[nH]c3ccccc23)C(=O)N[C@@H](CCC(N)=O)C(=O)N[C@H](C(N)=O)CSCc2cccc(c2)CSC1(C)C)C(C)C
B7: 3BP-3066 (peptide)
peptide: Ac-VYCEGDW[Tle]TWQC-NH2
modifications: linker 3-12 via mXylylene
SMILES: CC(=O)N[C@H](C(=O)N[C@@H](Cc1ccc(O)cc1)C(=O)N[C@H]1CSCc2cccc(c2)CSC[C@@H](C(N)=O)NC(=O)[C@H](CCC(N)=O)NC(=O)[C@H](Cc2c[nH]c3ccccc23)NC(=O)[C@H]([C@@H](C)O)NC(=O)[C@H](C(C)(C)C)NC(=O)[C@H](Cc2c[nH]c3ccccc23)NC(=O)[C@H](CC(=O)O)NC(=O)CNC(=O)[C@H](CCC(=O)O)NC1=O)C(C)C
notes: also called Ac-Val-Tyr-[Cys(3MeBn)-Glu-Gly-Asp-Trp-Tle-Thr-Trp-Gln-Cys]-NH2

The target of the first assay is T1, Fc-fusion protein of human carbonic anhydrase IX (human, UniProt Q16790 38-414). The assay is described as follows: SPR, captured hCAIX-Fc; pKD category A: >8.0. A general note: SPR reads the build-up and loss of mass on a sensor chip optically.
{DOTA-Ttds}-VYCEGDWLTWQC-NH2 (linker 3-12 via mXylylene) [3BP-2959] came in with a pKD greater than 8 pkd.

Consider {DOTA-PPAc″}-YCE[dP]D[Phe(3-NHCO(CH2)3SO2NH2)]LTWSC-NH2 (linker 2-11 via mXylylene; reading uncertain) [3BP-4448], for which the pKD was greater than 8 pkd.

Molecule {DOTA-Rni}-YCE[dP]D[Phe(3-NHCO(CH2)3SO2NH2)]LTWSC-NH2 (linker 2-11 via mXylylene; reading uncertain) [3BP-4455] gave a pKD greater than 8 pkd.

With {DOTA-Cmp}-DCE[dP]DWLTW[Dap]C-NH2 (lactam 10-1; linker 2-11 via mXylylene; reading uncertain) [3BP-4259], the pKD is greater than 8 pkd.

{DOTA-APAc″}-CE[dP]DWLTWSC-NH2 (linker 1-10 via mXylylene) [3BP-3858] showed a pKD greater than 8 pkd.

For the molecule B1, the pKD was greater than 8 pkd.

With {DOTA-PPAc}-DCE[dP]DWLTW[Dap]C-NH2 (lactam 10-1; linker 2-11 via mXylylene) [3BP-4255], the pKD is greater than 8 pkd.

On to {DOTA-PPAc}-ECE[dP]D[Aph(SaPr)]LTW[Dap]C-NH2 (lactam 1-10; linker 2-11 via mXylylene) [3BP-4504], for which the pKD was greater than 8 pkd.

B2: the pKD is greater than 8 pkd.

Molecule B3 had a pKD greater than 8 pkd.

{DOTA-PPAc}-ECE[dP]D[Phe(3-NHCO(CH2)3SO2NH2)]LTW[Dap]C-NH2 (lactam 1-10; linker 2-11 via mXylylene) [3BP-4502] gave a pKD greater than 8 pkd.

The target of a further assay is T1, Fc-fusion protein of human carbonic …. As to the kind of experiment: SPR, captured hCAIX-Fc; t1/2 category A: >15.0 min.
Regarding {DOTA-PPAc″}-YCE[dP]D[Phe(3-NHCO(CH2)3SO2NH2)]LTWSC-NH2 (linker 2-11 via mXylylene; reading uncertain) [3BP-4448], the “t1/2 (half-life of the complex, SPR)” value was greater than 15 min.

{DOTA-Rni}-YCE[dP]D[Phe(3-NHCO(CH2)3SO2NH2)]LTWSC-NH2 (linker 2-11 via mXylylene; reading uncertain) [3BP-4455]: the “t1/2 (half-life of the complex, SPR)” value was greater than 15 min.

As for {DOTA-PPAc}-ECE[dP]D[Aph(SaPr)]LTW[Dap]C-NH2 (lactam 1-10; linker 2-11 via mXylylene) [3BP-4504], the “t1/2 (half-life of the complex, SPR)” value was greater than 15 min.

Regarding B2, the “t1/2 (half-life of the complex, SPR)” value was greater than 15 min.

Regarding {DOTA-PPAc}-ECE[dP]D[Phe(3-NHCO(CH2)3SO2NH2)]LTW[Dap]C-NH2 (lactam 1-10; linker 2-11 via mXylylene) [3BP-4502], the “t1/2 (half-life of the complex, SPR)” value was greater than 15 min.

For another assay the target is unchanged. The assay is described as follows: SPR, captured hCAIX-Fc; t1/2 category D: <=2.0 min. Here is the method: Stock solutions of test compounds were prepared by dissolving each compound in DMSO. DMSO stock solution were diluted 1:1000 in Running Buffer without DMSO. […] SPR binding analyses were performed in Single Cycle Kinetic (SCK) mode at 25° C.
For each test compound, SPR raw data in the form of resonance units (RU) were plotted as sensorgrams using the Biacore™ T200 control software. The signal from the blank sensorgram was subtracted from that of the test compound sensorgram (blank corrected). The blank corrected sensorgram was corrected for baseline drift by subtracting the sensorgram of a SCK run without the test compound (running buffer only). […] Raw data and fit results were imported as text files in IDBS. The pKD value (negative decadic logarithm of dissociation constant) was calculated in the IDBS excel template.
On to {DOTA-Ttds}-VYCEGDWLTWQC-NH2 (linker 3-12 via mXylylene) [3BP-2959], for which the “t1/2 (half-life of the complex, SPR)” value is no more than 2 min.

Take {DOTA-Cmp}-DCE[dP]DWLTW[Dap]C-NH2 (lactam 10-1; linker 2-11 via mXylylene; reading uncertain) [3BP-4259]: the “t1/2 (half-life of the complex, SPR)” value was no more than 2 min.

As for {DOTA-APAc″}-CE[dP]DWLTWSC-NH2 (linker 1-10 via mXylylene) [3BP-3858], the “t1/2 (half-life of the complex, SPR)” value was no more than 2 min.

Turning to B1, the “t1/2 (half-life of the complex, SPR)” value was no more than 2 min.

On to {DOTA-PPAc}-DCE[dP]DWLTW[Dap]C-NH2 (lactam 10-1; linker 2-11 via mXylylene) [3BP-4255], for which the “t1/2 (half-life of the complex, SPR)” value was no more than 2 min.

Turning to B3, the “t1/2 (half-life of the complex, SPR)” value was no more than 2 min.

Another assay addresses human carbonic anhydrase IX (CAIX) (human, UniProt Q16790 38-459). The assay is described as follows: FACS competition, HT-29 cells, tracer 3BP-2776; pIC50 category A: >8.0. Here is the method:
(§1) CAIX-expressing human HT-29 colorectal cancer cells (DSMZ, RRID: CVCL_0320) were cultured in McCoys's 5A modified medium (Biochrom, #F1015) including 10% fetal calf serum (FCS), 2 mM L-glutamine, 100 U/ml penicillin and 100 μg/mL streptomycin. Cells were detached with Accutase (Biolegend, #423201) and washed in FACS buffer (PBS including 1% FCS). Cells were diluted in FACS buffer to a final concentration of 500.000 cells per ml. 200 μL of the cell suspension were transferred to a u-shaped non-binding 96-well plate (Greiner) and cells were washed in ice-cold FACS buffer.
(§2) When biotinylated compounds were used an additional incubation step with 1 μg/mL APC-Streptavidin (Miltenyi; #130-106-791) in 50 μL FACS buffer for 30 minutes on ice was performed.
(§3) Cells were washed twice with ice-cold FACS buffer and analyzed in an Attune NxT flow cytometer (Thermo Fisher). Median fluorescence intensities (MFI) of the APC/Cy5-channel were calculated by Attune NxT software.
As to {DOTA-PPAc″}-YCE[dP]D[Phe(3-NHCO(CH2)3SO2NH2)]LTWSC-NH2 (linker 2-11 via mXylylene; reading uncertain) [3BP-4448], the pIC50 is greater than 8 pic50.

Regarding {DOTA-PPAc″}-SCE[dP]D[Phe(3-NHCO(CH2)3SO2NH2)]LTWSC-NH2 (linker 2-11 via mXylylene; reading uncertain) [3BP-4450], the pIC50 is greater than 8 pic50.

With {DOTA-PPAc″}-RCE[dP]D[Phe(3-NHCO(CH2)3SO2NH2)]LTWSC-NH2 (linker 2-11 via mXylylene; reading uncertain) [3BP-4451], the pIC50 was greater than 8 pic50.

In the case of {DOTA-Rni}-YCE[dP]D[Phe(3-NHCO(CH2)3SO2NH2)]LTWSC-NH2 (linker 2-11 via mXylylene; reading uncertain) [3BP-4455], the pIC50 is greater than 8 pic50.

Molecule {DOTA-PPAc}-ECE[dP]D[Aph(SaPr)]LTW[Dap]C-NH2 (lactam 1-10; linker 2-11 via mXylylene) [3BP-4504] showed a pIC50 greater than 8 pic50.

In turn, B2 came in with a pIC50 greater than 8 pic50.

In the case of {DOTA-PPAc}-ECE[dP]D[Phe(3-NHCO(CH2)3SO2NH2)]LTW[Dap]C-NH2 (lactam 1-10; linker 2-11 via mXylylene) [3BP-4502], the pIC50 is greater than 8 pic50.

Molecule {DOTA-PPAc″}-YCE[dP]D[Phe(3-NHCO(CH2)3SO2NH2)][tBuAla]TWSC-NH2 (linker 2-11 via mXylylene; reading uncertain) [3BP-4449] yielded a pIC50 greater than 8 pic50.

The target of another assay is human carbonic anhydrase 9 (CAIX) (human, UniProt Q16790 38-459). As to the kind of experiment: FACS competition on HT-29 cells against tracer 3BP-2776; pIC50 category B = pIC50 7.1-8.0. Here is the method:
as §1, §2, §3
B4 gave a pIC50 of 7.1 to 8 pic50.

In the case of B5, the pIC50 fell in the range of 7.1 to 8 pic50.

As for B6, the pIC50 lay in the range of 7.1 to 8 pic50.

Turning to B7, the pIC50 is 7.1 to 8 pic50.

Source of the values: patent US20250339569A1 (3B PHARMACEUTICALS, published 2025).
